These results are taken from US20160279199A1, “PHARMACEUTICAL COMPOSITION FOR TREATING A METABOLIC SYNDROME” (Sanofi, priority 2010, published 2016).

For data set [1], the system named is db/db mice. Kind of data set: Oral glucose tolerance test (OGTT) in treated db/db mice. Particulars: after 21 days s.c. once daily (AVE0010 0.05, FGF-21 0.75, combination 0.75+0.05 mg·kg−1·day−1), fasted, 2 g·kg−1 oral glucose, vs vehicle treated obese control, FIG. 5. In kind it is in vivo, mouse. On the procedure:
(§1) Female db/db mice (BKS.Cg-m +/+ Leprdb/J, age of 6 weeks) were treated with vehicle (PBS), 0.05 mg·kg^−1·day^−1 AVE0010, 0.75 mg·kg^−1·day^−1 recombinant human FGF-21 (SEQ ID NO: 2) or a combined dose of FGF-21 (SEQ ID NO: 2) and AVE0010 (SEQ ID NO:9), (0.75+0.05 mg·kg^−1·day^−1) subcutaneously once daily. Mice were fed ad libitum. Before the first treatment, after one week and 4 weeks blood glucose and HbA1c were measured under fed conditions. After 21 days of treatment an oral glucose tolerance test (OGTT) was initiated. Fasted mice were orally challenged with 2 g·kg^−1 glucose solution and blood glucose was measured at indicated time points.

In data set [2] the test system is db/db mice. Kind of data set: Fed blood glucose during treatment of db/db mice. In kind it is in vivo, mouse. Particulars: s.c. once daily (AVE0010 0.05, FGF-21 0.75, combination 0.75+0.05 mg·kg−1·day−1), up to 4 weeks, FIG. 6. On the procedure: as §1
The test system of a further data set is mouse 3T3-L1 adipocytes. Particulars: in the presence and absence of insulin; cited from earlier work.
The subject of the next data set is diabetic rhesus monkeys. Particulars: 6 weeks; cited from earlier work.
Data set [3] concerns ob/ob mice, db/db mice, ZDF rats. Particulars: cited from earlier work.
The mark [4] stands for this setting: ob/ob and db/db mice and obese ZDF rats.

B1: FGF-21 (SEQ ID NO: 2): mutated FGF-21 carrying a deletion of amino acids 1-28 of human FGF-21 and an additional glycine at the N-terminus (protein)
chain: GHPIPDSSPLLQFGGQVRQRYLYTDDAQQTEAHLEIREDGTVGGAADQSPESLLQLKALKPGVIQILGVKTSRFLCQRPDGALYGSLHFDPEACSFRELLLEDGYNVYQSEAHGLPLHLPGNKSPHRDPAPRGPARFLPLPGLPPAPPEPPGILAPQPPDVGSSDPLSMVGPSQGRSPSYAS
modifications: G linked to fragment of human FGF21 from H29 to S209
notes: mutated FGF-21 carrying a deletion of amino acids 1-28 of human FGF-21 and an additional glycine at the N-terminus
On to B1, for which, in the data set on db/db mice [1], the “glucose tolerance (OGTT)” value was “small improvement in glucose tolerance”. Besides, the blood glucose result with db/db mice [2] is given as “inhibition of blood glucose increase”.

B2: FGF21: Fibroblast growth factor 21, metabolic regulator produced primarily by the liver, as studied in the cited literature (protein, UniProt Q9NSA1 29-209, looked up)
Fibroblast growth factor 21: HPIPDSSPLLQFGGQVRQRYLYTDDAQQTEAHLEIREDGTVGGAADQSPESLLQLKALKPGVIQILGVKTSRFLCQRPDGALYGSLHFDPEACSFRELLLEDGYNVYQSEAHGLPLHLPGNKSPHRDPAPRGPARFLPLPGLPPALPEPPGILAPQPPDVGSSDPLSMVGPSQGRSPSYAS
Regarding B2, in the data set with mouse 3T3-L1 adipocytes, the glucose uptake result is “stimulate glucose uptake”. Besides, in the data set with diabetic rhesus monkeys, the HDL-cholesterol entry was “increased”; the LDL-cholesterol entry is recorded as “significantly lowered”; the body weight result is “slightly but significantly decreased”; the “fasting plasma glucose, fructosamine, triglyceride, insulin and glucagone levels” value is on record as “reduced”. In addition, in the data set with diabetic rhesus monkeys, the hypoglycemia entry is on record as “not observed”. The “mitogenicity, hypoglycemia, or weight gain” value in data set [3] (any dose tested, diabetic or healthy animals) was “did not induce”. For the same molecule, the “food intake or body weight/composition” value in data set [3] (diabetic or lean mice and rats, 2 weeks of administration) was “did not affect”. The “fed and fasting blood glucose, triglycerides, and glucagon levels” value in data set [3] (ob/ob and db/db mice and 8 week old ZDF rats, dose dependent) is reported as “decrease”. Moreover, in data set [3] (setting [4]), the “blood glucose and triglycerides” value was “significantly lowered”; the fasting insulin levels result is recorded as “decreased”; the “glucose clearance during an oral glucose tolerance test” value is “improved”.
